Data published in patent US20220072097A1, “PEPTIDES AND METHODS FOR TREATING NEURODEGENERATIVE DISORDERS” (OHIO STATE INNOVATION FOUNDATION, priority 2016, published 2022).

Tests used:
[1] = target: T1, human APP fragment (SEQ ID NO:1) (Homo sapiens, UniProt P05067); assay: Kinetic ELISA binding of PTPσ fragments to human APP fragment; conditions: recombinant proteins, compared with IG1,2
T1 construct: made in house
Experimental: (§1) FIG. 20 Ligand binding site of PTPσ IG1 domain interacts with APP. Binding of human APP fragment (SEQ ID NO:1) with various PTPσ fragments is measured by kinetic ELISA assay. APP fragment corresponds to SEQ ID NO:1, which is a region between E1 and E2 domains. PTPσ fragments used here include IG1,2 (containing IG1 and IG2 domains), ΔLysIG1,2 (containing IG1 and IG2 domains, with lysine 67, 68, 70, 71 mutated to alanine), IG1-FN1 (containing IG1, IG2, IG3 and FN1 domains), ECD (full extracellular domain of PTPσ containing all 3 IG domains and 4 FN domains). Value shown are mean±SEM, n=3 for each group. ***, p≤0.001, Student t test, comparison with the IG1,2.
(§2) Domain regions were subcloned from human APP695 (construct by Denis Selkoe and Tracy Yang labs purchased through Addgene.com) and PTPσ (constructs from Radu Aricescu lab). Recombinant APP and PTPσ proteins were tested in solid phase ELISA binding assays to define the binding regions on each partner. […] Comparing APP binding strength of difference PTPσ fragments, it appears that inclusion of the fibronectin (FN) domains of PTPσ weakens the interaction with APP, likely due to folding of PTPσ that covers up the ligand binding site in its IG1 domain^61.

[2] = test system: PTPσ; assay: Solid phase ELISA binding of recombinant APP domains to PTPσ; set-up: species or system human; conditions: recombinant proteins, solid phase ELISA binding assay
Experimental: as §1, §2

Row | Molecule | Binding of PTPσ fragment with APP SEQ ID NO:1 [1] | Interaction of APP region with PTPσ [2]
1 | Full PTPσ extracellular domain: full extracellular domain of PTPσ containing all 3 IG domains and 4 FN domains (protein, UniProt Q13332 30-1282, looked up, extracellular domain, full extracellular domain of PTPσ containing all 3 IG domains and 4 FN domains) extracellular domain: EEPPRFIKEPKDQIGVSGGVASFVCQATGDPKPRVTWNKKGKKVNSQRFETIEFDESAGAVLRIQPLRTPRDENVYECVAQNSVGEITVHAKLTVLREDQLPSGFPNIDMGPQLKVVERTRTATMLCAASGNPDPEITWFKDFLPVDPSASNGRIKQLRSETFESTPIRGALQIESSEETDQGKYECVATNSAGVRYSSPANLYVRELREVRRVAPRFSILPMSHEIMPGGNVNITCVAVGSPMPYVKWMQGAEDLTPEDDMPVGRNVLELTDVKDSANYTCVAMSSLGVIEAVAQITVKSLPKAPGTPMVTENTATSITITWDSGNPDPVSYYVIEYKSKSQDGPYQIKEDITTTRYSIGGLSPNSEYEIWVSAVNSIGQGPPSESVVTRTGEQAPASAPRNVQARMLSATTMIVQWEEPVEPNGLIRGYRVYYTMEPEHPVGNWQKHNVDDSLLTTVGSLLEDETYTVRVLAFTSVGDGPLSDPIQVKTQQGVPGQPMNLRAEARSETSITLSWSPPRQESIIKYELLFREGDHGREVGRTFDPTTSYVVEDLKPNTEYAFRLAARSPQGLGAFTPVVRQRTLQSKPSAPPQDVKCVSVRSTAILVSWRPPPPETHNGALVGYSVRYRPLGSEDPEPKEVNGIPPTTTQILLEALEKWTQYRITTVAHTEVGPGPESSPVVVRTDEDVPSAPPRKVEAEALNATAIRVLWRSPAPGRQHGQIRGYQVHYVRMEGAEARGPPRIKDVMLADAQWETDDTAEYEMVITNLQPETAYSITVAAYTMKGDGARSKPKVVVTKGAVLGRPTLSVQQTPEGSLLARWEPPAGTAEDQVLGYRLQFGREDSTPLATLEFPPSEDRYTASGVHKGATYVFRLAARSRGGLGEEAAEVLSIPEDTPRGHPQILEAAGNASAGTVLLRWLPPVPAERNGAIVKYTVAVREAGALGPARETELPAAAEPGAENALTLQGLKPDTAYDLQVRAHTRRGPGPFSPPVRYRTFLRDQVSPKNFKVKMIMKTSVLLSWEFPDNYNSPTPYKIQYNGLTLDVDGRTTKKLITHLKPHTFYNFVLTNRGSSLGGLQQTVTAWTAFNLLNGKPSVAPKPDADGFIMVYLPDGQSPVPVQSYFIVMVPLRKSRGGQFLTPLGSPEDMDLEELIQDISRLQRRSLRHSRQLEVPRPYIAARFSVLPPTFHPGDQKQYGGFDNRGLEPGHRYVLFVLAVLQKSEPTFAASPFSDPFQLDNPDPQPIVDGEEG | nearly lost binding | –
2 | … (protein, recombinant human APP fragment, the region between E1 and E2 domains) AEESDNVDSADAEEDDSDVWWGGADTDYADGSEDKVVEVAEEEEVAEVEEEEADDDEDDEDGDEVEEEAEEPYEEATERTTSIATTTTTTTESVEEVVR | – | high affinity
